Results published in US20150344570A1 (published 2015).

T1: FcγRIIa R (human, UniProt P12318 34-217)
T1 construct: extracellular domain; Soluble His-tagged extracellular domain expressed in FreeStyle293 cells; analyte in Biacore; also called FcgRIIa R; FcgRIIaR; not shown: His tag attached to the C terminus
T1 sequence (looked up): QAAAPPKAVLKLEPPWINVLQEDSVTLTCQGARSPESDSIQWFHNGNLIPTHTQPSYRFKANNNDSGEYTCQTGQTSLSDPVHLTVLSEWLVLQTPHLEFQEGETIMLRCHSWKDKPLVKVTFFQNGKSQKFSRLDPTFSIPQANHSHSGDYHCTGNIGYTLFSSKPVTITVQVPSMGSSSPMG

T2: FcγRIIb (human, UniProt P31994 43-217)
T2 construct: extracellular domain; Soluble His-tagged extracellular domain expressed in FreeStyle293 cells; analyte in Biacore; also called FcgRIIb; 2b; not shown: His tag attached to the C terminus
T2 sequence (looked up): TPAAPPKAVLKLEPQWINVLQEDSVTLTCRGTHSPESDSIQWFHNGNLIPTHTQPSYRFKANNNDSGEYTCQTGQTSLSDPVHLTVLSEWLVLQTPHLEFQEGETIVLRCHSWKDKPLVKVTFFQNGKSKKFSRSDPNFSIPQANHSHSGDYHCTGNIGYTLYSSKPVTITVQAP


Legend:
FcγRIIa R [1] = biological target: T1, FcγRIIa R; experiment: SPR (Biacore), antibody captured via antigen peptide, FcγR as analyte
Procedure: (§1) The heterodimerized antibodies He Abs in which one of the H chains was introduced with an alteration were assayed for their binding activities to each activating FcγR and inhibitory FcγR according to the method described in Example 4. […] The activating FcγRs in FIGS. 26, 27, 28, and 29 are FcγRIa, FcγRIIa (R), FcγRIIa (H), and FcγRIIIa, respectively.
(§2) Analysis of interaction between objective antibody and the FcγR was carried out using Biacore T100 (GE Healthcare). HBS-EP+ (GE Healthcare) was used as the running buffer, and the measurement temperature was set to 25° C. Chips produced by immobilizing the antigen peptide by the amine coupling method to a Series S Sencor Chip CM5 (GE Healthcare), or alternatively, chips produced by allowing preliminarily biotinylated antigen peptides to interact with and immobilize onto a Series S Sensor Chip SA (certified) (GE Healthcare) were used. Antibodies of interest were captured onto an antigen peptide-immobilized chip, and allowed to interact to each FcγR diluted with running buffer. To regenerate and repeatedly use the chip, the antibodies captured on the chip were washed off by reacting 10 mM glycine-HCl, pH 1.5.

FcγRIIb = biological target: T2, FcγRIIb; experiment: as above
Procedure: as §1, §2

FcγRIIa R [2] = biological target: T1, FcγRIIa R; experiment: ratio of He/Con_2aR to He/Con_2b (binding to FcγRIIb as reference); SPR

Row | He/Con_2aR (IIaR binding relative to GpH7-A5/GpH7-B3/GpL16-k0) (FcγRIIa R [1]) | He/Con_2b (IIb binding relative to GpH7-A5/GpH7-B3/GpL16-k0) (FcγRIIb) | He_2aR/2b (IIaR/IIb) (FcγRIIa R [2]) | Binder
1 | 70.9 % of control (control = 100) | 55.6 % of control (control = 100) | 1.27 | GpH7-A5/GpH7-B3 variant A330_09D/GpL16-k0 (antibody, human IgG1, kappa, Heterodimerized anti-glypican-3 IgG1 antibody; alteration only in the GpH7-B3 H chain; position in EU numbering; also called He Ab) heavy 1: not shown heavy 2: not shown light: DIVMTQSPLSLPVTPGEPASISCQASESLVHSNRNTYLHWYLQKPGQSPQLLIYKVSNRFSGVPDRFSGSGSGTDFTLKISRVEAEDVGVYYCSQNTHVPPTFGQGTKVEIERTVAAPSVFIFPPSDEQLKSGTASVVCLLNNFYPREAKVQWKVDNALQSGNSQESVTEQDSKDSTYSLSSTLTLSKADYEKHKVYACEVTHQGLSSPVTKSFNRGEC
2 | 58.9 % of control (control = 100) | 40.5 % of control (control = 100) | 1.45 | GpH7-A5/GpH7-B3 variant P329_02A/GpL16-k0 (antibody, human IgG1, kappa, Heterodimerized anti-glypican-3 IgG1 antibody; alteration only in the GpH7-B3 H chain; position in EU numbering; also called He Ab) heavy 1: not shown heavy 2: not shown light: DIVMTQSPLSLPVTPGEPASISCQASESLVHSNRNTYLHWYLQKPGQSPQLLIYKVSNRFSGVPDRFSGSGSGTDFTLKISRVEAEDVGVYYCSQNTHVPPTFGQGTKVEIERTVAAPSVFIFPPSDEQLKSGTASVVCLLNNFYPREAKVQWKVDNALQSGNSQESVTEQDSKDSTYSLSSTLTLSKADYEKHKVYACEVTHQGLSSPVTKSFNRGEC
3 | 16.2 % of control (control = 100) | 10.4 % of control (control = 100) | 1.57 | GpH7-A5/GpH7-B3 variant N325_11K/GpL16-k0 (antibody, human IgG1, kappa, Heterodimerized anti-glypican-3 IgG1 antibody; alteration only in the GpH7-B3 H chain; position in EU numbering; also called He Ab) heavy 1: not shown heavy 2: not shown light: DIVMTQSPLSLPVTPGEPASISCQASESLVHSNRNTYLHWYLQKPGQSPQLLIYKVSNRFSGVPDRFSGSGSGTDFTLKISRVEAEDVGVYYCSQNTHVPPTFGQGTKVEIERTVAAPSVFIFPPSDEQLKSGTASVVCLLNNFYPREAKVQWKVDNALQSGNSQESVTEQDSKDSTYSLSSTLTLSKADYEKHKVYACEVTHQGLSSPVTKSFNRGEC
4 | 95.5 % of control (control = 100) | 77.9 % of control (control = 100) | 1.23 | GpH7-A5/GpH7-B3 variant A330_14T/GpL16-k0 (antibody, human IgG1, kappa, Heterodimerized anti-glypican-3 IgG1 antibody; alteration only in the GpH7-B3 H chain; position in EU numbering; also called He Ab) heavy 1: not shown heavy 2: not shown light: DIVMTQSPLSLPVTPGEPASISCQASESLVHSNRNTYLHWYLQKPGQSPQLLIYKVSNRFSGVPDRFSGSGSGTDFTLKISRVEAEDVGVYYCSQNTHVPPTFGQGTKVEIERTVAAPSVFIFPPSDEQLKSGTASVVCLLNNFYPREAKVQWKVDNALQSGNSQESVTEQDSKDSTYSLSSTLTLSKADYEKHKVYACEVTHQGLSSPVTKSFNRGEC
5 | 89 % of control (control = 100) | 70.1 % of control (control = 100) | 1.27 | GpH7-A5/GpH7-B3 variant N325_16H/GpL16-k0 (antibody, human IgG1, kappa, Heterodimerized anti-glypican-3 IgG1 antibody; alteration only in the GpH7-B3 H chain; position in EU numbering; also called He Ab) heavy 1: not shown heavy 2: not shown light: DIVMTQSPLSLPVTPGEPASISCQASESLVHSNRNTYLHWYLQKPGQSPQLLIYKVSNRFSGVPDRFSGSGSGTDFTLKISRVEAEDVGVYYCSQNTHVPPTFGQGTKVEIERTVAAPSVFIFPPSDEQLKSGTASVVCLLNNFYPREAKVQWKVDNALQSGNSQESVTEQDSKDSTYSLSSTLTLSKADYEKHKVYACEVTHQGLSSPVTKSFNRGEC
6 | 60.8 % of control (control = 100) | 41.3 % of control (control = 100) | 1.47 | GpH7-A5/GpH7-B3 variant A330_13S/GpL16-k0 (antibody, human IgG1, kappa, Heterodimerized anti-glypican-3 IgG1 antibody; alteration only in the GpH7-B3 H chain; position in EU numbering; also called He Ab) heavy 1: not shown heavy 2: not shown light: DIVMTQSPLSLPVTPGEPASISCQASESLVHSNRNTYLHWYLQKPGQSPQLLIYKVSNRFSGVPDRFSGSGSGTDFTLKISRVEAEDVGVYYCSQNTHVPPTFGQGTKVEIERTVAAPSVFIFPPSDEQLKSGTASVVCLLNNFYPREAKVQWKVDNALQSGNSQESVTEQDSKDSTYSLSSTLTLSKADYEKHKVYACEVTHQGLSSPVTKSFNRGEC
7 | 86.6 % of control (control = 100) | 70.1 % of control (control = 100) | 1.23 | GpH7-A5/GpH7-B3 variant A330_10E/GpL16-k0 (antibody, human IgG1, kappa, Heterodimerized anti-glypican-3 IgG1 antibody; alteration only in the GpH7-B3 H chain; position in EU numbering; also called He Ab) heavy 1: not shown heavy 2: not shown light: DIVMTQSPLSLPVTPGEPASISCQASESLVHSNRNTYLHWYLQKPGQSPQLLIYKVSNRFSGVPDRFSGSGSGTDFTLKISRVEAEDVGVYYCSQNTHVPPTFGQGTKVEIERTVAAPSVFIFPPSDEQLKSGTASVVCLLNNFYPREAKVQWKVDNALQSGNSQESVTEQDSKDSTYSLSSTLTLSKADYEKHKVYACEVTHQGLSSPVTKSFNRGEC
8 | 92.1 % of control (control = 100) | 69.1 % of control (control = 100) | 1.33 | GpH7-A5/GpH7-B3 variant N325_19Q/GpL16-k0 (antibody, human IgG1, kappa, Heterodimerized anti-glypican-3 IgG1 antibody; alteration only in the GpH7-B3 H chain; position in EU numbering; also called He Ab) heavy 1: not shown heavy 2: not shown light: DIVMTQSPLSLPVTPGEPASISCQASESLVHSNRNTYLHWYLQKPGQSPQLLIYKVSNRFSGVPDRFSGSGSGTDFTLKISRVEAEDVGVYYCSQNTHVPPTFGQGTKVEIERTVAAPSVFIFPPSDEQLKSGTASVVCLLNNFYPREAKVQWKVDNALQSGNSQESVTEQDSKDSTYSLSSTLTLSKADYEKHKVYACEVTHQGLSSPVTKSFNRGEC
9 | 104 % of control (control = 100) | 84.8 % of control (control = 100) | 1.22 | GpH7-A5/GpH7-B3 variant A330_12R/GpL16-k0 (antibody, human IgG1, kappa, Heterodimerized anti-glypican-3 IgG1 antibody; alteration only in the GpH7-B3 H chain; position in EU numbering; also called He Ab) heavy 1: not shown heavy 2: not shown light: DIVMTQSPLSLPVTPGEPASISCQASESLVHSNRNTYLHWYLQKPGQSPQLLIYKVSNRFSGVPDRFSGSGSGTDFTLKISRVEAEDVGVYYCSQNTHVPPTFGQGTKVEIERTVAAPSVFIFPPSDEQLKSGTASVVCLLNNFYPREAKVQWKVDNALQSGNSQESVTEQDSKDSTYSLSSTLTLSKADYEKHKVYACEVTHQGLSSPVTKSFNRGEC
10 | 81.1 % of control (control = 100) | 63.7 % of control (control = 100) | 1.27 | GpH7-A5/GpH7-B3 variant A330_18N/GpL16-k0 (antibody, human IgG1, kappa, Heterodimerized anti-glypican-3 IgG1 antibody; alteration only in the GpH7-B3 H chain; position in EU numbering; also called He Ab) heavy 1: not shown heavy 2: not shown light: DIVMTQSPLSLPVTPGEPASISCQASESLVHSNRNTYLHWYLQKPGQSPQLLIYKVSNRFSGVPDRFSGSGSGTDFTLKISRVEAEDVGVYYCSQNTHVPPTFGQGTKVEIERTVAAPSVFIFPPSDEQLKSGTASVVCLLNNFYPREAKVQWKVDNALQSGNSQESVTEQDSKDSTYSLSSTLTLSKADYEKHKVYACEVTHQGLSSPVTKSFNRGEC
11 | 84.1 % of control (control = 100) | 64.4 % of control (control = 100) | 1.31 | GpH7-A5/GpH7-B3 variant N325_02A/GpL16-k0 (antibody, human IgG1, kappa, Heterodimerized anti-glypican-3 IgG1 antibody; alteration only in the GpH7-B3 H chain; position in EU numbering; also called He Ab) heavy 1: not shown heavy 2: not shown light: DIVMTQSPLSLPVTPGEPASISCQASESLVHSNRNTYLHWYLQKPGQSPQLLIYKVSNRFSGVPDRFSGSGSGTDFTLKISRVEAEDVGVYYCSQNTHVPPTFGQGTKVEIERTVAAPSVFIFPPSDEQLKSGTASVVCLLNNFYPREAKVQWKVDNALQSGNSQESVTEQDSKDSTYSLSSTLTLSKADYEKHKVYACEVTHQGLSSPVTKSFNRGEC
12 | 42.2 % of control (control = 100) | 26 % of control (control = 100) | 1.63 | GpH7-A5/GpH7-B3 variant N325_05P/GpL16-k0 (antibody, human IgG1, kappa, Heterodimerized anti-glypican-3 IgG1 antibody; alteration only in the GpH7-B3 H chain; position in EU numbering; also called He Ab) heavy 1: not shown heavy 2: not shown light: DIVMTQSPLSLPVTPGEPASISCQASESLVHSNRNTYLHWYLQKPGQSPQLLIYKVSNRFSGVPDRFSGSGSGTDFTLKISRVEAEDVGVYYCSQNTHVPPTFGQGTKVEIERTVAAPSVFIFPPSDEQLKSGTASVVCLLNNFYPREAKVQWKVDNALQSGNSQESVTEQDSKDSTYSLSSTLTLSKADYEKHKVYACEVTHQGLSSPVTKSFNRGEC
13 | 30.3 % of control (control = 100) | 20.3 % of control (control = 100) | 1.5 | GpH7-A5/GpH7-B3 variant I336_20W/GpL16-k0 (antibody, human IgG1, kappa, Heterodimerized anti-glypican-3 IgG1 antibody; alteration only in the GpH7-B3 H chain; position in EU numbering; also called He Ab) heavy 1: not shown heavy 2: not shown light: DIVMTQSPLSLPVTPGEPASISCQASESLVHSNRNTYLHWYLQKPGQSPQLLIYKVSNRFSGVPDRFSGSGSGTDFTLKISRVEAEDVGVYYCSQNTHVPPTFGQGTKVEIERTVAAPSVFIFPPSDEQLKSGTASVVCLLNNFYPREAKVQWKVDNALQSGNSQESVTEQDSKDSTYSLSSTLTLSKADYEKHKVYACEVTHQGLSSPVTKSFNRGEC
14 | 26.1 % of control (control = 100) | 19.1 % of control (control = 100) | 1.37 | GpH7-A5/GpH7-B3 variant N325_12R/GpL16-k0 (antibody, human IgG1, kappa, Heterodimerized anti-glypican-3 IgG1 antibody; alteration only in the GpH7-B3 H chain; position in EU numbering; also called He Ab) heavy 1: not shown heavy 2: not shown light: DIVMTQSPLSLPVTPGEPASISCQASESLVHSNRNTYLHWYLQKPGQSPQLLIYKVSNRFSGVPDRFSGSGSGTDFTLKISRVEAEDVGVYYCSQNTHVPPTFGQGTKVEIERTVAAPSVFIFPPSDEQLKSGTASVVCLLNNFYPREAKVQWKVDNALQSGNSQESVTEQDSKDSTYSLSSTLTLSKADYEKHKVYACEVTHQGLSSPVTKSFNRGEC
